Earlier results in paper PMC3721222.
Read-outs that look alike come from different tables or passages of the source.

Tests used:
[1] = target: Trypsin (Bos taurus) (UniProt P00760)
[2] = target: Trypsin (Bos taurus) (UniProt P00760); remark: listed apart in the source
[3] = target: Thrombin (Homo sapiens) (UniProt P00734)
[4] = target: Trypsin (Bos taurus) (UniProt P00760); remark: listed apart in the source
[5] = target: Plasmin (Homo sapiens) (UniProt P00747)
[6] = target: Trypsin (Bos taurus) (UniProt P00760); remark: listed apart in the source
[7] = target: Trypsin (Bos taurus) (UniProt P00760); remark: listed apart in the source
[8] = target: Plasmin (Homo sapiens) (UniProt P00747); remark: listed apart in the source
[9] = target: Kv1.2 (UniProt P16389)
[10] = target: Kv1.6 (UniProt P17658)
[11] = target: Kv1.1 (UniProt Q09470)
[12] = target: Trypsin (Bos taurus) (UniProt P00760); remark: listed apart in the source
[13] = target: Chymotrypsin (Bos taurus) (UniProt P00766)
[14] = target: Trypsin (Bos taurus) (UniProt P00760); remark: listed apart in the source
[15] = target: Chymotrypsin (Bos taurus) (UniProt P00766); remark: listed apart in the source
[16] = target: Subtilisin A (Bacillus licheniformis) (UniProt P00780)
[17] = target: Neutrophil elastase (Homo sapiens) (UniProt P08246)
[18] = target: Pancreatic elastase (Sus scrofa) (UniProt P00772)
[19] = target: Chymotrypsin (Bos taurus) (UniProt P00766); remark: listed apart in the source
[20] = target: Proteinase K (Parengyodontium album) (UniProt P06873)
[21] = target: Chymotrypsin (Bos taurus) (UniProt P00766); remark: listed apart in the source
[22] = target: Plasma kallikrein (Homo sapiens) (UniProt P03952)
[23] = target: alpha-Factor XIIa (Homo sapiens) (UniProt P00748)
[24] = target: Trypsin (Bos taurus) (UniProt P00760); remark: listed apart in the source
[25] = target: Plasmin (Homo sapiens) (UniProt P00747); remark: listed apart in the source
[26] = target: Chymotrypsin (Bos taurus) (UniProt P00766); remark: listed apart in the source

UniProt P00760, sequence (P00760 149-246): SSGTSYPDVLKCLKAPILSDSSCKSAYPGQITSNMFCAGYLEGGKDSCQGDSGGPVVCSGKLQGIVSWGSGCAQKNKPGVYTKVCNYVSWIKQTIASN
UniProt P00747, sequence (P00747 581-810): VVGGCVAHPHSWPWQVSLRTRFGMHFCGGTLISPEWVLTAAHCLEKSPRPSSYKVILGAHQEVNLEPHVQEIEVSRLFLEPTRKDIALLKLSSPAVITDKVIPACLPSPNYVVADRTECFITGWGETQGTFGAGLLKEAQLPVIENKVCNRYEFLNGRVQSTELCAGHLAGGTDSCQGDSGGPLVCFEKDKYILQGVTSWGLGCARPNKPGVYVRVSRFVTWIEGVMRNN
UniProt P00780, sequence (P00780 106-379): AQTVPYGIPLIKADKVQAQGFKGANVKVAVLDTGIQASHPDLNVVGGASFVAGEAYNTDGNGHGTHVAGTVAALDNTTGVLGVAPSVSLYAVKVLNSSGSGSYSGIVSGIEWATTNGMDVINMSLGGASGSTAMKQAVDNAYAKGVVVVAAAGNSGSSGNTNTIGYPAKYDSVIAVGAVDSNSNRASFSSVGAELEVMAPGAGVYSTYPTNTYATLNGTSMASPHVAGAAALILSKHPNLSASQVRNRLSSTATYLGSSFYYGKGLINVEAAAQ
UniProt P06873, sequence (P06873 106-384): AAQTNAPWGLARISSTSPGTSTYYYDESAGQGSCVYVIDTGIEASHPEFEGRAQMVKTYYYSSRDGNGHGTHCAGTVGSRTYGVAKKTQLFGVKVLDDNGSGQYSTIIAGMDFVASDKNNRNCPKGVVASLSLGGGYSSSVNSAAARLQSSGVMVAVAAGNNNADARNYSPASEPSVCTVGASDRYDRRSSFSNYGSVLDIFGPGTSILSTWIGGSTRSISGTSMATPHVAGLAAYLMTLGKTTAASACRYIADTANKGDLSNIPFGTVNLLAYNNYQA
UniProt P00772, sequence (P00772 27-266): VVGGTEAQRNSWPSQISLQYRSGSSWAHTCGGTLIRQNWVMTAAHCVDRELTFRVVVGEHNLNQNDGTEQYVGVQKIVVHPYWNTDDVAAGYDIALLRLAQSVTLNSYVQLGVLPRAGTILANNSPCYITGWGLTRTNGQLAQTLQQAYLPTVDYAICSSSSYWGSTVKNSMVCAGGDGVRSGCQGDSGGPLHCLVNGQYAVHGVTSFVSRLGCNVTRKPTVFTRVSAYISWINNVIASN
UniProt P17658, sequence (P17658 whole entry): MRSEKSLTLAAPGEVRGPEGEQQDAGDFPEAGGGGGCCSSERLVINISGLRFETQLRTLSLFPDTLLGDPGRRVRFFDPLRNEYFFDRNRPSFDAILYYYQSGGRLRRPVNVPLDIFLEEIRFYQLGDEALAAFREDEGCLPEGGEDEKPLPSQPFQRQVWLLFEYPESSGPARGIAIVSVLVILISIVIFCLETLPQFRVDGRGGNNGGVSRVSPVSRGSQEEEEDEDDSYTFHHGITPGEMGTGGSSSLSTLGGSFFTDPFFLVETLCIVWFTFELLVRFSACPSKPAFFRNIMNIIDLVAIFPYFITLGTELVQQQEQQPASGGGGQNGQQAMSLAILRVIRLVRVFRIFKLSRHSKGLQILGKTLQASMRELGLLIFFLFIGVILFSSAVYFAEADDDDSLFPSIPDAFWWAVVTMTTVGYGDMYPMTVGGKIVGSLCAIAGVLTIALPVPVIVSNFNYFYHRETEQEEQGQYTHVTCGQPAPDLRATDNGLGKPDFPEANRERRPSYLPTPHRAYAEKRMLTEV
UniProt P16389, sequence (P16389 whole entry): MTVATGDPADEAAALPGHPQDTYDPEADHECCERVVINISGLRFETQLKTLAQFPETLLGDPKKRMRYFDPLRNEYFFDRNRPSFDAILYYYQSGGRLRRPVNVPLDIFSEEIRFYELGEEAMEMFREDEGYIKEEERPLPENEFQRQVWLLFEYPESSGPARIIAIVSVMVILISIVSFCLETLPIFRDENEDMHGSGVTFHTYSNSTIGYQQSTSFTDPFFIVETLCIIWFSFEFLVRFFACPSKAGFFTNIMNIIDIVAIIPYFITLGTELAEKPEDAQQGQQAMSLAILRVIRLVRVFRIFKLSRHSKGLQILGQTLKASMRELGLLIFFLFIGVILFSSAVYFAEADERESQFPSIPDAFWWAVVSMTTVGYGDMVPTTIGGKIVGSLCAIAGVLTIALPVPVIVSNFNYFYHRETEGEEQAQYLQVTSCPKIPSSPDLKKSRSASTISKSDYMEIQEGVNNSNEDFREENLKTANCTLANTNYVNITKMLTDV
UniProt P08246, sequence (P08246 30-267): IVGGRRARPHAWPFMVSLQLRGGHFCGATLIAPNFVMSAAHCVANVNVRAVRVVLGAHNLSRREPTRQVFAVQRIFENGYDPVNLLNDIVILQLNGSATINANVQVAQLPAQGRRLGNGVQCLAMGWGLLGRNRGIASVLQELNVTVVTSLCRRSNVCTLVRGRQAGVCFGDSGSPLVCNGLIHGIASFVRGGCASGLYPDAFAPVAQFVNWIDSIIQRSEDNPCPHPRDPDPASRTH
UniProt P00748, sequence (P00748 20-372, chain 1 of 2): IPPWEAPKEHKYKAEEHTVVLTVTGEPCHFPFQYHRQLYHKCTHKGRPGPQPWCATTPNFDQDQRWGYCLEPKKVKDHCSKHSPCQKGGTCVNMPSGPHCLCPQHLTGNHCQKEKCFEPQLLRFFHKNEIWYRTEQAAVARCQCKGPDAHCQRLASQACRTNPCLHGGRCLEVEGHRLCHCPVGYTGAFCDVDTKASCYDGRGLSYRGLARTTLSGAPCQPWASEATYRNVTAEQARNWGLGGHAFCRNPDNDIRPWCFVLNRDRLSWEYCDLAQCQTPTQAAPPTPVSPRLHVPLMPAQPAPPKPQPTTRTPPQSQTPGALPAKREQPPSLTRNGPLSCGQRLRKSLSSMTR
UniProt P00748, sequence (P00748 373-615, chain 2 of 2): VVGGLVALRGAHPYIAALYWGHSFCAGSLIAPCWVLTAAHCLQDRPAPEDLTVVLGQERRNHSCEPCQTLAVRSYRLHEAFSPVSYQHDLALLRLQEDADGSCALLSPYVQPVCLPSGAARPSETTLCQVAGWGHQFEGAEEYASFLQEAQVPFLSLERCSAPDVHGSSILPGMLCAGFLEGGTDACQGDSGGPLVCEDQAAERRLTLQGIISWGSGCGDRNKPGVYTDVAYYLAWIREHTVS
UniProt Q09470, sequence (Q09470 whole entry): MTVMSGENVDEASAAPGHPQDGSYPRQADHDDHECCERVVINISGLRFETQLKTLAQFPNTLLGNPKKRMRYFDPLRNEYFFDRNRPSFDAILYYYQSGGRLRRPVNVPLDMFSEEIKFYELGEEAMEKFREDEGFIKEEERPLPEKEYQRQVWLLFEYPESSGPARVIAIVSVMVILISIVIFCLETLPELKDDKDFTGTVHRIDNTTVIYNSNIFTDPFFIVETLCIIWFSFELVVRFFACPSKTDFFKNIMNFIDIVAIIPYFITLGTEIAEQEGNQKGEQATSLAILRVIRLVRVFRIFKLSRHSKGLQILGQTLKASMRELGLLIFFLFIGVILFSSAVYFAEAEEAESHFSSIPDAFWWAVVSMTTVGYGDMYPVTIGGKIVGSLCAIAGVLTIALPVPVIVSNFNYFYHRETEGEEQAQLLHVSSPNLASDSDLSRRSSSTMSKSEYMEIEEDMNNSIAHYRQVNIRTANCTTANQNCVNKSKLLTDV
UniProt P03952, sequence (P03952 391-638): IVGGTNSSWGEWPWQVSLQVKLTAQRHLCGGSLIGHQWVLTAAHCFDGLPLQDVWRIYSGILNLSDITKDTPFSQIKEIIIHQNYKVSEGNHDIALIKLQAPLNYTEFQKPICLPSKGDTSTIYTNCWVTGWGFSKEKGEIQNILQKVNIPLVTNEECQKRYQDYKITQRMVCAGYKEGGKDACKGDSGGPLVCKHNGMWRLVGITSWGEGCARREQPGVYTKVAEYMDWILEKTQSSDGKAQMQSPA

Substance: rBmKTT-3 (from UniProt P0DJ47)
- Kd [1]: 760 nM

Substance: Bicolin (from UniProt C0LNR2)
- Ki [2]: 550 nM
- Ki [3]: 26000 nM

Substance: Textilinin-1 (from UniProt Q90WA1)
- Ki [4]: 0.76 nM
- Ki [5]: 0.49 nM

Substance: HWTX-XI (from UniProt P68425)
- Kd [6]: 0.23 nM

Substance: Pr-mulgin 3 (from UniProt E7FL13)
- Ki [7]: 5 nM
- Ki [8]: 100 nM

Substance: α-dendrotoxin (from UniProt P00980)
- Kd [9]: < 20 nM
- Kd [10]: < 20 nM
- Kd [11]: < 20 nM

Substance: APEKTx1 (from UniProt P86862)
- Kd [12]: 124 nM

Substance: Oh11-1 (from UniProt P82966)
- Ki [13]: 3520 nM

Substance: OH-TCI (recombinant) (from UniProt B6RLX2)
- Ki [14]: 391 nM
- Ki [15]: 84.6 nM

Substance: AvCI (from UniProt L7X735)
- Ki [16]: 20.5 nM
- Ki [17]: 8.74 nM
- Ki [18]: 11.3 nM
- Ki [19]: 49.9 nM
- Ki [20]: 65.4 nM

Substance: BBPTI-1 (from UniProt A8Y7P1)
- Ki [21]: 4.77 nM

Substance: TSPI (from UniProt B7S4N9)
- Ki [22]: 0.057 nM
- Ki [23]: 2380 nM

Substance: Pr-mulgin 2 (from UniProt E7FL12)
- Ki [24]: 5 nM
- Ki [25]: 40 nM
- Ki [26]: 40 nM
